The values below are quoted from earlier work in article PMC12475976.

The Kd is the constant that tells how readily two partners part at equilibrium.

This data set concerns the target SREBF1 (Homo sapiens) (UniProt P36956).

Sequence of SREBF1 (Homo sapiens) (P36956 whole entry): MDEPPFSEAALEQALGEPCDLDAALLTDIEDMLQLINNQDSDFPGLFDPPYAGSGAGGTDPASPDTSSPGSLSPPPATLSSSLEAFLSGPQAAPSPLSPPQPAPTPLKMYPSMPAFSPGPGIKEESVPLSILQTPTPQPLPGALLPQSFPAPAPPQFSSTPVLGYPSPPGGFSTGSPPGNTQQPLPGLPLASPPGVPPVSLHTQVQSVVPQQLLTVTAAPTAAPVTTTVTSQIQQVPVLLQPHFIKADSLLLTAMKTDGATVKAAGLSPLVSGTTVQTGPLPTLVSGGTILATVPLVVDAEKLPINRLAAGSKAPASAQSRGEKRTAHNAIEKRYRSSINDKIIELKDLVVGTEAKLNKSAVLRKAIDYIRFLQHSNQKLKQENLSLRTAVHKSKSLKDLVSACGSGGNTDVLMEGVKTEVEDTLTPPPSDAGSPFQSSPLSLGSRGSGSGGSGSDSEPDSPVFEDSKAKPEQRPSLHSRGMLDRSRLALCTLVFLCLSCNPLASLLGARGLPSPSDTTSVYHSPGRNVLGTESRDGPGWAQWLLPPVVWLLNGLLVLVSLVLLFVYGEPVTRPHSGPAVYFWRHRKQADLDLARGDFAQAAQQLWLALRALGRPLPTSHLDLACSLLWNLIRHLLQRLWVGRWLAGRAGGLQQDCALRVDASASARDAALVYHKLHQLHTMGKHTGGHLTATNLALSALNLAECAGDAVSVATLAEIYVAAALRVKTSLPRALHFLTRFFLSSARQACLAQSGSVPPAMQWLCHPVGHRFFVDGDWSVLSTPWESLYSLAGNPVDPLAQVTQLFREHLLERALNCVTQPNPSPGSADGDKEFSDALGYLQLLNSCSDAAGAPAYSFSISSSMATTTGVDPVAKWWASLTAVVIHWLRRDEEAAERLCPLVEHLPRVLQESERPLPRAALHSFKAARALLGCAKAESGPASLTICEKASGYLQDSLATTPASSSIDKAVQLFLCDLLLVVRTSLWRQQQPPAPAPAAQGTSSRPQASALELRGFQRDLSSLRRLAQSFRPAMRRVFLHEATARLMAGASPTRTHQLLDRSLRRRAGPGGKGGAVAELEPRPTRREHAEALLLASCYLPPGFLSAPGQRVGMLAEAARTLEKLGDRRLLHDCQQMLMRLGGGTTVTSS
Sequence of Vav2 (P52735 whole entry): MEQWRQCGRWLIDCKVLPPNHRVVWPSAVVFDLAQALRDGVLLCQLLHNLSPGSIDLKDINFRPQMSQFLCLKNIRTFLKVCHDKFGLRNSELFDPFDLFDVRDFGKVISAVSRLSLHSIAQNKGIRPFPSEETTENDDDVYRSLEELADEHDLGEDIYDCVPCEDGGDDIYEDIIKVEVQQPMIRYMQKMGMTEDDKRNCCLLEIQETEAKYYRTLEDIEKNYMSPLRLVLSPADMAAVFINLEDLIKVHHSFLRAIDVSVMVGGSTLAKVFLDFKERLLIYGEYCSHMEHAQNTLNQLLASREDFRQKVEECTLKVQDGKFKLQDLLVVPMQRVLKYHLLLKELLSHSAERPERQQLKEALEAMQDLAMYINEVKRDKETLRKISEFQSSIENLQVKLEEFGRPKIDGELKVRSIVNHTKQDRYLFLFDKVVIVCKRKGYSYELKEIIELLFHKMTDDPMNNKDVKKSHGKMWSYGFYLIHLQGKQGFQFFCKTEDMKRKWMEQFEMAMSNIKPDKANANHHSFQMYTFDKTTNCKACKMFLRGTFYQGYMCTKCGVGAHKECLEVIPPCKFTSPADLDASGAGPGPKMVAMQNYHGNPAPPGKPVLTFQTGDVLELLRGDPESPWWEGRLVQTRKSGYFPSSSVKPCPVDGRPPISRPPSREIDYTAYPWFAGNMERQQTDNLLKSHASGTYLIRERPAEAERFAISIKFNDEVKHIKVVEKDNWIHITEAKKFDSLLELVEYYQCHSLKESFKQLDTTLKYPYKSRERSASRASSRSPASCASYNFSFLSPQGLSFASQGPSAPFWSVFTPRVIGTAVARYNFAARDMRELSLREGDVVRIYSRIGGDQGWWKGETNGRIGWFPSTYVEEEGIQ

Consider Vav2 (from UniProt P52735), for which the Kd was 8.3 nM.
